Consider one substance from patent publication US20250298013A1.

Assay [1] has as its target Background (Staphylococcus aureus). Briefly: SPRi, in-line blocking: IgG mix injected after thiolated PEG over a chip functionalised with thiolated protein A, (+) press load (300 Pa) [Continued) E].
For assay [2] the target is unchanged. Briefly: SPRi, in-line blocking: IgG mix injected after thiolated PEG over a chip functionalised with thiolated protein A, (-) press load [Continued) C].

Turning to IgG mix (antibody), the values for the IgG change (Background curve) (%Reflectivity) in assay [1] and in assay [2] were 2 and 12, respectively.
